# Source: patent US20160068822A1
# Columns and labels:
# TALE(Ngn2)-NLS-CRY2PHR = experiment: cell-based or functional assay
# TALE(KLF4)-NLS-CRY2PHR = experiment: cell-based or functional assay
substance,measurement,setting,value
CIB1-NLS-VP64-2A_GFP,Neurog2 expression peak at 12 h of light stimulation,TALE(Ngn2)-NLS-CRY2PHR,19 fold
same,Neurog2 mRNA level 0.5 h after the end of a 6 h stimulation,TALE(Ngn2)-NLS-CRY2PHR,16 fold
same,upregulation of Neurog2 expression at 0.5 h of light stimulation,TALE(Ngn2)-NLS-CRY2PHR,5 fold
same,"KLF4 mRNA upregulation, saturated at 5 mW/cm2 (HEK293FT cells)",TALE(KLF4)-NLS-CRY2PHR,2.3 fold
